Two proteins from article doi:10.1101/318345v1 can be followed below.

Substrate in series [1]: NC(=O)c1ccc[n+]([C@@H]2O[C@H](COP(=O)(O)OP(=O)(O)OC[C@H]3O[C@@H](n4cnc5c(N)ncnc54)[C@H](OP(=O)(O)O)[C@@H]3O)[C@@H](O)[C@H]2O)c1
Description: purified protein. Conditions: 200 μM isocitrate, 5 mM MgCl2, pH 7.5, 37 °C. Type of series: biochemical, Pseudomonas aeruginosa.

Substrate in series [2]: O=C(O)C[C@H](C(=O)O)[C@@H](O)C(=O)O
Description: purified protein. The class given is biochemical, Pseudomonas aeruginosa. Conditions: 200 μM NADP+, 5 mM MgCl2, pH 7.5, 37 °C.

B1: ICD (Pseudomonas aeruginosa PAO1) (protein)
chain: MGYQKIQVPATGDKITVNADMSLSVPKNPIIPFIEGDGIGVDISPVMIKVVDAAVEKAYKGERKIAWMEVYAGEKATQVYDQDTWLPQETLDAVRDYVVSIKGPLTTPVGGGIRSLNVALRQQLDLYVCQRPVRWFEGVPSPVKKPGDVDMVIFRENSEDIYAGVEWKAGSPEAEKVIKFLTEEMGVKKIRFTENCGIGIKPVSQEGTKRLVRKALQYAVDNDRSSVTLVHKGNIMKFTEGAFKDWGYEVARDEFGAELLDGGPWMQFKNPKTGKNVVVKDVIADAMLQQILLRPAEYDVIATLNLNGDYLSDALAAEVGGIGIAPGANLSDSVAMFEATHGTAPKYAGQDKVNPGSLILSAEMMLRHMGWTEAADLIIKGTNGAIAAKTVTYDFERLMDGATLLSCSEFGDAMIAKM
As usually defined, the Km is the substrate concentration at which the rate is half of its maximum. As a reminder, the kcat is the number of substrate molecules converted per active site and unit of time at saturation. Turning to B1, in “purified protein [1]”, the Km amounted to 32.3 µM and the kcat was 684.9 s⁻¹. In the series “purified protein [2]”, the Km came to 25.6 µM and the kcat is 608.8 s⁻¹.

B2: IDH (Pseudomonas aeruginosa PAO1) (protein)
chain: MSIRSKITYTFTDEAPALATYSLLPIVKAFAASAGIDVETSDISLAGRILANFADRLEADQRIEDDLARLAVLATSPDANIIKLPNISASVPQLKGAIAELQGLGYKVPDFPEDPQTDEEKEVRARYAKILGSAVNPVLREGNSDRRAPAAVKAYARKHPHSMGKWSMASRSHADYMRGGDFFSSEQSITMAKAGDVRIEFVGKDGKVEVKKQLSLQEGEVLDSMFMSCGKLRDFFEKTLQDCKETGVMWSLHVKATMMKISHPIVFGHAVSVYYKDVFDKWGQLFEELGVNPNNGISSVYDKIKSLPASQQEEILHDIHEVYSHRPEMAMVDSVKGITNLHIPSDVIVDASMPAMIRNSGQMWGKDGKQKDTKAVMPESTYARIYQEMINFCKTNGAFDPTTMGSVPNVGLMAQKAEEYGSHDKTFEMTADGTMRVVLADGSVLMQHKVETGDIWRACQTKDAPIRDWVKLAVTRARQSDTPAIFWLDPERAHDRELRKKVELYLKDHDLTGLDISIMGYNEAIRVSMERLIRGKDTISVTGNVLRDYLTDLFPIMELGTSAKMLSIVPLMAGGGMYETGAGGSAPKHVQQLVEENYLRWDSLGEFLALAVSLEETGIKTGNAKAKLLGKALDEATGKLLDNNKSPSRKVGDIDNRGSHFYLAMYWAQALAAQNEDAELKAHFAPLAKALTEQEATIVAELNAVQGKPAEIGGYYRSNPELTSKVMRPSATFNAAIDSLA
On to B2, for which, in “purified protein [2]”, the Km came out at 17.7 µM and the catalytic constant (kcat) came to 183.7 s⁻¹.
